Measurements: publication PMC5862502, “Coordinated regulation of Arabidopsis microRNA biogenesis and red light signaling through Dicer-like 1 and phytochrome-interacting factor 4”

Molecular target: T1, PIF4-MBP (phytochrome-interacting factor 4) (Arabidopsis thaliana, UniProt Q8W2F3 1-430)
T1 sequence: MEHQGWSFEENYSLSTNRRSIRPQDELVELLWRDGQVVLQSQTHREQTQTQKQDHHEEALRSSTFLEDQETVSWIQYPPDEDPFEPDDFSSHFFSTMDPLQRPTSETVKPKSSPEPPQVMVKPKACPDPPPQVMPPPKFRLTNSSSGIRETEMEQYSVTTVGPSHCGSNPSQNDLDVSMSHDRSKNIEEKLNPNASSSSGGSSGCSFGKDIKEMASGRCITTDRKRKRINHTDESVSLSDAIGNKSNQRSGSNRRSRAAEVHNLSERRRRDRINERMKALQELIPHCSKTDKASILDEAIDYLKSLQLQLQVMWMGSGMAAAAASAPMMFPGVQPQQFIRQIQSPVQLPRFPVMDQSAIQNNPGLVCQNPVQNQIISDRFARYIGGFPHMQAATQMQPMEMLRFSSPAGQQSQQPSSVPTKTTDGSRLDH
Assay: EMSA; 1 nM labeled probe; decreasing amounts of PIF4; unlabeled same-sequence competitor in lane 8; LightShift Chemiluminescent EMSA kit buffer (composition not given), 20 ul, 30 min on ice, 1x TBE polyacrylamide gel
Conditions: protein: recombinant; tags: MBP; chain copies: 2; label: 3' biotin on sense strand; blunt

B1: miR160b promoter G-box fragment (dsDNA)
DNA 1: AGACACGTGTAGAAATCTTCTAAACCC
DNA 2: GGGTTTAGAAGATTTCTACACGTGTCT
**Q.** Does B1 bind?
**A.** binds
